Laboratory results as given in patent EP2170953B1 (AC Immune S.A., dated 2015).

Tests used:
[1] = molecular target: Aβ1-42 library peptide 23; assay: peptide library ELISA, Ab 10 µg/ml
[2] = molecular target: Aβ1-42 library peptide 13; assay: peptide library ELISA, Ab 10 µg/ml
[3] = molecular target: Aβ1-42 library peptide 30; assay: peptide library ELISA, Ab 10 µg/ml
Aβ1-42 library peptide 5 = assay: peptide library ELISA, Ab 10 µg/ml
[4] = molecular target: Aβ1-42 library peptide 24; assay: peptide library ELISA, Ab 10 µg/ml
[5] = molecular target: Aβ1-42 library peptide 25; assay: peptide library ELISA, Ab 10 µg/ml
Aβ1-42 library peptide 7 = assay: peptide library ELISA, Ab 10 µg/ml
[6] = molecular target: Aβ1-42 library peptide 19; assay: peptide library ELISA, Ab 10 µg/ml
Aβ1-42 library peptide 1 = assay: peptide library ELISA, Ab 10 µg/ml
[7] = molecular target: Aβ1-42 library peptide 27; assay: peptide library ELISA, Ab 10 µg/ml
[8] = molecular target: Aβ1-42 library peptide 15; assay: peptide library ELISA, Ab 10 µg/ml
[9] = molecular target: Aβ1-42 library peptide 29; assay: peptide library ELISA, Ab 10 µg/ml
[10] = molecular target: Aβ1-42 library peptide 22; assay: peptide library ELISA, Ab 10 µg/ml
Aβ1-42 library peptide 8 = assay: peptide library ELISA, Ab 10 µg/ml
[11] = molecular target: Aβ1-42 library peptide 21; assay: peptide library ELISA, Ab 10 µg/ml
[12] = molecular target: Aβ1-42 library peptide 10; assay: peptide library ELISA, Ab 10 µg/ml
[13] = molecular target: Aβ1-42 library peptide 11; assay: peptide library ELISA, Ab 10 µg/ml
Aβ1-42 library peptide 2 = assay: peptide library ELISA, Ab 10 µg/ml
[14] = molecular target: Aβ1-42 library peptide 26; assay: peptide library ELISA, Ab 10 µg/ml
[15] = molecular target: Aβ1-42 library peptide 33; assay: peptide library ELISA, Ab 10 µg/ml
[16] = molecular target: Aβ1-42 library peptide 20; assay: peptide library ELISA, Ab 10 µg/ml
[17] = molecular target: Aβ1-42 library peptide 28; assay: peptide library ELISA, Ab 10 µg/ml
Aβ1-42 library peptide 9 = assay: peptide library ELISA, Ab 10 µg/ml
[18] = molecular target: Aβ1-42 library peptide 12; assay: peptide library ELISA, Ab 10 µg/ml
Aβ1-42 library peptide 3 = assay: peptide library ELISA, Ab 10 µg/ml
[19] = molecular target: Aβ1-42 library peptide 14; assay: peptide library ELISA, Ab 10 µg/ml
[20] = molecular target: Aβ1-42 library peptide 17; assay: peptide library ELISA, Ab 10 µg/ml
[21] = molecular target: Aβ1-42 library peptide 18; assay: peptide library ELISA, Ab 10 µg/ml
Aβ1-42 library peptide 6 = assay: peptide library ELISA, Ab 10 µg/ml
[22] = molecular target: Aβ1-42 library peptide 16; assay: peptide library ELISA, Ab 10 µg/ml
[23] = molecular target: Aβ1-42 library peptide 31; assay: peptide library ELISA, Ab 10 µg/ml
[24] = molecular target: Aβ1-42 library peptide 32; assay: peptide library ELISA, Ab 10 µg/ml
Aβ1-42 library peptide 4 = assay: peptide library ELISA, Ab 10 µg/ml
[25] = molecular target: pre-aggregated Aβ1-42 (Th-T disaggregation assay); assay: cell-based or functional assay
Sequence of pre-aggregated Aβ1-42 (Th-T disaggregation assay) (peptide, as listed by the source, form in doubt): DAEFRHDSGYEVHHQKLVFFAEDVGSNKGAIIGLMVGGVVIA

[26] = molecular target: Aβ1-42 (low-molecular weight, HFIP-treated, Th-T aggregation assay); assay: cell-based or functional assay
Sequence of Aβ1-42 (low-molecular weight, HFIP-treated, Th-T aggregation assay) (peptide, as listed by the source, form in doubt): as above

O.D. [1] [O.D.]	O.D. [2] [O.D.]	O.D. [3] [O.D.]	O.D. (Aβ1-42 library peptide 5) [O.D.]	O.D. [4] [O.D.]	O.D. [5] [O.D.]	O.D. (Aβ1-42 library peptide 7) [O.D.]	O.D. [6] [O.D.]	O.D. (Aβ1-42 library peptide 1) [O.D.]	O.D. [7] [O.D.]	O.D. [8] [O.D.]	O.D. [9] [O.D.]	O.D. [10] [O.D.]	O.D. (Aβ1-42 library peptide 8) [O.D.]	O.D. [11] [O.D.]	O.D. [12] [O.D.]	O.D. [13] [O.D.]	O.D. (Aβ1-42 library peptide 2) [O.D.]	O.D. [14] [O.D.]	O.D. [15] [O.D.]	Binder	further results
0.11	0.17	0.11	0.11	0.1	0.11	0.11	0.1	0.1	0.13	0.14	0.2	0.1	0.11	0.1	0.13	0.11	0.1	0.12	0.11	ACI-11-Ab-9 (antibody, V domains shown, also called FG1F9E4) VH: QVQLQQSDAELVKPGASVKISCKVSGYTFTDHTIHWMKQRPEQGLEWIGYIYPRDGSTKYNEKFKGKATLTADKSSSTAYMQLNSLTSEDSAVYFCARDYGYAFDYWGQGTTLTVSS VL: QAVVTQESALTTSPGGTVILTCRSSTGAVTTSNYANWVQEKPDHLFTGLIGGTSNRAPGVPVRFSGSLIGDKAALTITGAQTEDDAMYFCALWYSTHYVFGGGTKVTVL	O.D. [16]: 0.1 O.D.; O.D. [17]: 0.12 O.D.; O.D. (Aβ1-42 library peptide 9): 0.11 O.D.; O.D. [18]: 0.24 O.D.; O.D. (Aβ1-42 library peptide 3): 0.12 O.D.; O.D. [19]: 0.16 O.D.; O.D. [20]: 0.13 O.D.; O.D. [21]: 0.11 O.D.; O.D. (Aβ1-42 library peptide 6): 0.11 O.D.; O.D. [22]: 0.14 O.D.; O.D. [23]: 0.12 O.D.; O.D. [24]: 0.12 O.D.; O.D. (Aβ1-42 library peptide 4): 0.11 O.D.; disaggregation of pre-aggregated Aβ1-42 (Th-T fluorescence), molar ratio 1:10 [25]: 52%; disaggregation of pre-aggregated Aβ1-42 (Th-T fluorescence), molar ratio 1:100 [25]: 22%; inhibition of Aβ1-42 aggregation (Th-T fluorescence), molar ratio 1:10 [26]: 69%; inhibition of Aβ1-42 aggregation (Th-T fluorescence), molar ratio 1:100 [26]: 34%
0.1	0.15	0.11	0.1	0.1	0.11	0.1	0.1	0.1	0.12	0.1	0.11	0.1	0.1	0.09	0.1	0.11	0.1	0.12	0.11	ACI-12-Ab-11 (antibody, V domains shown, also called FK2A6A6) VH: QVQLQQSDAELVKPGASVKISCKVSGYTFTDHTIHWMKQRPEQGLEWIGYIYPRDGSTKYNEKFKGKATLTADKSSSTAYMQLNSLTSEDSAVYFCARDYGYAFDYWGQGTTLTVSS VL: QAVVTQESALTTSPGGTVILTCRSSTGAVTTSNYANWVQEKPDHLFTGLIGGTSNRAPGVPVRFSGSLIGDKAALTITGAQTEDDAMYFCALWYSTHYVFGGGTKVTVL	O.D. [16]: 0.1 O.D.; O.D. [17]: 0.11 O.D.; O.D. (Aβ1-42 library peptide 9): 0.1 O.D.; O.D. [18]: 0.21 O.D.; O.D. (Aβ1-42 library peptide 3): 0.11 O.D.; O.D. [19]: 0.12 O.D.; O.D. [20]: 0.12 O.D.; O.D. [21]: 0.1 O.D.; O.D. (Aβ1-42 library peptide 6): 0.1 O.D.; O.D. [22]: 0.14 O.D.; O.D. [23]: 0.11 O.D.; O.D. [24]: 0.11 O.D.; O.D. (Aβ1-42 library peptide 4): 0.1 O.D.; disaggregation of pre-aggregated Aβ1-42 (Th-T fluorescence), molar ratio 1:10 [25]: 54%; disaggregation of pre-aggregated Aβ1-42 (Th-T fluorescence), molar ratio 1:100 [25]: 18%; inhibition of Aβ1-42 aggregation (Th-T fluorescence), molar ratio 1:10 [26]: 66%; inhibition of Aβ1-42 aggregation (Th-T fluorescence), molar ratio 1:100 [26]: 30%
